The target in assay [1] is SdgB glycosylated SdrC4 protein (UniProt O86487 51-910). The assay can be described thus: SPR. For orientation: In SPR one partner is held on a chip, and binding of the other changes the refractive index at the surface.
The target of assay [2] is LukE, recombinant polyhistidine-tagged variant. In words: SPR.

B1: mAb 5133 PRASA A6 HC-L4-E (Table 1 Construct 15) (bispecific antibody)
heavy: EVQLVETGGGLVKPGGSLRLSCSASRFSFRDYYMTWIRQAPGKGPEWVSHISGSGSTIYYADSVRGRFTISRDNAKSSLYLQMDSLQADDTAVYYCARGGRATSYYWVHWGPGTLVTVSSASTKGPSVFPLAPSSKSTSGGTAALGCLVKDYFPEPVTVSWNSGALTSGVHTFPAVLQSSGLYSLSSVVTVPSSSLGTQTYICNVNHKPSNTKVDKKVEPKSCDKTHTCPPCPAPPVAGPDVFLFPPKPKDTLMISRTPEVTCVVVDVSHEDPEVKFNWYVDGVEVHNAKTKPREEQYNSTYRVVSVLTVLHQDWLNGKEYKCKVSNAALPAPIAKTISKAKGQPREPQVYTLPPSRDELTKNQVSLTCLVKGFYPSDIAVEWESNGQPENNYKTTPPVLDSDGSFFLYSKLTVDKSRWQQGNVFSCSVMHEALHNRFTQKSLSLSPGKGGGGSGGGGSGGGGSGGGGSMLPAPKNLVVSRVTEDSARLSWTAPDAAFDSFHIEYAEPWVWGEAIVLTVPGSERSYDLTGLKPGTEYVVFIGGVKGGHNSTPLSAIFTT
light: EIVLTQSPATLSLSPGERATLSCRASQSVSGYLGWYQQKPGQAPRLLIYGASSRATGIPDRFSGSGSGTDFTLTISRLEPEDFAVYYCQQYGSSPLTFGGGTKLEIKRTVAAPSVFIFPPSDEQLKSGTASVVCLLNNFYPREAKVQWKVDNALQSGNSQESVTEQDSKDSTYSLSSTLTLSKADYEKHKVYACEVTHQGLSSPVTKSFNRGEC
Usually Kd stands for a measure of binding affinity in units of concentration. Turning to B1, the Kd stood at 0.63 nM in assay [1] and 0.88 nM in assay [2].

B2: mAb 5133 PRASA A6 HC-L4-E-L4-AB (Table 1 Construct 11) (bispecific antibody)
heavy: EVQLVETGGGLVKPGGSLRLSCSASRFSFRDYYMTWIRQAPGKGPEWVSHISGSGSTIYYADSVRGRFTISRDNAKSSLYLQMDSLQADDTAVYYCARGGRATSYYWVHWGPGTLVTVSSASTKGPSVFPLAPSSKSTSGGTAALGCLVKDYFPEPVTVSWNSGALTSGVHTFPAVLQSSGLYSLSSVVTVPSSSLGTQTYICNVNHKPSNTKVDKKVEPKSCDKTHTCPPCPAPPVAGPDVFLFPPKPKDTLMISRTPEVTCVVVDVSHEDPEVKFNWYVDGVEVHNAKTKPREEQYNSTYRVVSVLTVLHQDWLNGKEYKCKVSNAALPAPIAKTISKAKGQPREPQVYTLPPSRDELTKNQVSLTCLVKGFYPSDIAVEWESNGQPENNYKTTPPVLDSDGSFFLYSKLTVDKSRWQQGNVFSCSVMHEALHNRFTQKSLSLSPGKGGGGSGGGGSGGGGSGGGGSMLPAPKNLVVSRVTEDSARLSWTAPDAAFDSFHIEYAEPWVWGEAIVLTVPGSERSYDLTGLKPGTEYVVFIGGVKGGHNSTPLSAIFTTGGGGSGGGGSGGGGSGGGGSMLPAPKNLVVSRVTEDSARLSWTAPDAAFDSFWITYEEKFYRGEAIVLTVPGSERSYDLTGLKPGTEYKVWIVGVKGGQGSWPLSAIFTT
light: B1 light
In the case of B2, the Kd came out at 0.91 nM in assay [1] and 1.01 nM in assay [2].

The values are drawn from patent publication US20190127444A1 (published 2019).
